The chains are these.
B1: Aspartate aminotransferase, P00509 (parent)
chain: MFENITAAPADPILGLADLFRADERPGKINLGIGVYKDETGKTPVLTSVKKAEQYLLENETTKNYLGIDGIPEFGRCTQELLFGKGSALINDKRARTAQTPGGTGALRVAADFLAKNTSVKRVWVSNPSWPNHKSVFNSAGLEVREYAYYDAENHTLDFDALINSLNEAQAGDVVLFHGCCHNPTGIDPTLEQWQTLAQLSVEKGWLPLFDFAYQGFARGLEEDAEGLRAFAAMHKELIVASSYSKNFGLYNERVGACTLVAADSETVDRAFSQMKAAIRANYSNPPAHGASVVATILSNDALRAIWEQELTDMRQRIQRMRQLFVNTLQEKGANRDFSFIIKQNGMFSFSGLTKEQVLRLREEFGVYAVASGRVNVAGMTPDNMAPLCEAIVAVL

The variants in the series derive from B1. The note with it: Escherichia coli (strain K12); pH 7.5; 25 °C; Urea; DSC; potassium-HEPES 40 mM; reversible: yes; structure 1AMQ; whole UniProt chain shown.

MFENITAAPADPILGLADLFRADERPGKINLGIGVYKDETGKTPVLTSVKKAEQYLLENETTKNYLGIDGIPEFGRATQELLFGKGSALINDKRARTAQTPGGTGALRVAADFLAKNTSVKRVWVSNPSWPNHKSVFNSAGLEVREYAYYDAENHTLDFDALINSLNEAQAGDVVLFHGCCHNPTGIDPTLEQWQTLAQLSVEKGWLPLFDFAYQGFARGLEEDAEGLRAFAAMHKELIVASSYSKNFGLYNERVGACTLVAADSETVDRAFSQMKAAIRANYSNPPAHGASVVATILSNDALRAIWEQELTDMRQRIQRMRQLFVNTLQEKGANRDFSFIIKQNGMFSFSGLTKEQVLRLREEFGVYAVASGRVNVAGMTPDNMAPLCEAIVAVL [C77A]: the “ddG of mutation (higher = less stable)” value worked out at 1.3 kcal/mol, the denaturant m value came out at 2.13 kcal/mol/M, the “denaturant midpoint (higher = more stable)” value (shortened to “denaturant midpoint”) is 4.06 M and the unfolding free energy came to 8.67 kcal/mol.
Regarding MFENITAAPADPILGLADLFRADERPGKINLGIGVYKDETGKTPVLTSVKKAEQYLLENETTKNYLGIDGIPEFGRCTQELLFGKGSALINDKRARTAQTPGGTGALRVAADFLAKNTSVKRVWVSNPSWPNHKSVFNSAGLEVREYAYYDAENHTLDFDALINSLNEAQAGDVVLFHGCCHNPTGIDPTLEQWQTLAQLSVEKGWLPLFDFAYQGFARGLEEDAEGLRAFAAMHKELIVASSYSKNFGLYNERVGACTLVAADSETVDRAFSQMKAAIRANYSNPPAHGASVVATILSNDALRAIWEQELTDMRQRIQRMRQLFVNTLQEKGANRDFSFIIKQNGMFSFSGLTKEQVLRLREEFGVYAVASGRVNVAGMTPDNMAPLAEAIVAVL [C389A], the “ddG of mutation (higher = less stable)” value is -3.2 kcal/mol, the denaturant m value was 3.87 kcal/mol/M, the “denaturant midpoint” value is 3.41 M and the unfolding free energy worked out at 13.2 kcal/mol.
For MFENITAAPADPILGLADLFRADERPGKINLGIGVYKDETGKTPVLTSVKKAEQYLLENETTKNYLGIDGIPEFGRATQELLFGKGSALINDKRARTAQTPGGTGALRVAADFLAKNTSVKRVWVSNPSWPNHKSVFNSAGLEVREYAYYDAENHTLDFDALINSLNEAQAGDVVLFHGAAHNPTGIDPTLEQWQTLAQLSVEKGWLPLFDFAYQGFARGLEEDAEGLRAFAAMHKELIVASSYSKNFGLYNERVGAATLVAADSETVDRAFSQMKAAIRANYSNPPAHGASVVATILSNDALRAIWEQELTDMRQRIQRMRQLFVNTLQEKGANRDFSFIIKQNGMFSFSGLTKEQVLRLREEFGVYAVASGRVNVAGMTPDNMAPLAEAIVAVL [C77A C180A C181A C258A C389A], the “ddG of mutation (higher = less stable)” value stood at 1 kcal/mol, the denaturant m value came to 2.83 kcal/mol/M, the “denaturant midpoint” value was determined as 3.16 M and the unfolding free energy stood at 8.92 kcal/mol.
Regarding MFENITAAPADPILGLADLFRADERPGKINLGIGVYKDETGKTPVLTSVKKAEQYLLENETTKNYLGIDGIPEFGRCTQELLFGKGSALINDKRARTAQTPGGTGALRVAADFLAKNTSVKRVWVSNPSWPNHKSVFNSAGLEVREYAYYDAENHTLDFDALINSLNEAQAGDVVLFHGSCHNPTGIDPTLEQWQTLAQLSVEKGWLPLFDFAYQGFARGLEEDAEGLRAFAAMHKELIVASSYSKNFGLYNERVGACTLVAADSETVDRAFSQMKAAIRANYSNPPAHGASVVATILSNDALRAIWEQELTDMRQRIQRMRQLFVNTLQEKGANRDFSFIIKQNGMFSFSGLTKEQVLRLREEFGVYAVASGRVNVAGMTPDNMAPLCEAIVAVL [C180S], the “ddG of mutation (higher = less stable)” value was found to be 1.8 kcal/mol, the denaturant m value amounted to 2.38 kcal/mol/M, the “denaturant midpoint” value came out at 3.41 M and the unfolding free energy came out at 8.12 kcal/mol.
For MFENITAAPADPILGLADLFRADERPGKINLGIGVYKDETGKTPVLTSVKKAEQYLLENETTKNYLGIDGIPEFGRCTQELLFGKGSALINDKRARTAQTPGGTGALRVAADFLAKNTSVKRVWVSNPSWPNHKSVFNSAGLEVREYAYYDAENHTLDFDALINSLNEAQAGDVVLFHGACHNPTGIDPTLEQWQTLAQLSVEKGWLPLFDFAYQGFARGLEEDAEGLRAFAAMHKELIVASSYSKNFGLYNERVGACTLVAADSETVDRAFSQMKAAIRANYSNPPAHGASVVATILSNDALRAIWEQELTDMRQRIQRMRQLFVNTLQEKGANRDFSFIIKQNGMFSFSGLTKEQVLRLREEFGVYAVASGRVNVAGMTPDNMAPLCEAIVAVL [C180A], the “ddG of mutation (higher = less stable)” value was determined as 2.2 kcal/mol, the denaturant m value amounted to 2 kcal/mol/M, the “denaturant midpoint” value came to 3.87 M and the unfolding free energy came to 7.74 kcal/mol.
Take MFENITAAPADPILGLADLFRADERPGKINLGIGVYKDETGKTPVLTSVKKAEQYLLENETTKNYLGIDGIPEFGRCTQELLFGKGSALINDKRARTAQTPGGTGALRVAADFLAKNTSVKRVWVSNPSWPNHKSVFNSAGLEVREYAYYDAENHTLDFDALINSLNEAQAGDVVLFHGCAHNPTGIDPTLEQWQTLAQLSVEKGWLPLFDFAYQGFARGLEEDAEGLRAFAAMHKELIVASSYSKNFGLYNERVGACTLVAADSETVDRAFSQMKAAIRANYSNPPAHGASVVATILSNDALRAIWEQELTDMRQRIQRMRQLFVNTLQEKGANRDFSFIIKQNGMFSFSGLTKEQVLRLREEFGVYAVASGRVNVAGMTPDNMAPLCEAIVAVL [C181A]: the “ddG of mutation (higher = less stable)” value came out at 1.6 kcal/mol, the denaturant m value worked out at 2.35 kcal/mol/M, the “denaturant midpoint” value is 3.53 M and the unfolding free energy is 8.32 kcal/mol.
Taken in the same sequence, the figures for MFENITAAPADPILGLADLFRADERPGKINLGIGVYKDETGKTPVLTSVKKAEQYLLENETTKNYLGIDGIPEFGRCTQELLFGKGSALINDKRARTAQTPGGTGALRVAADFLAKNTSVKRVWVSNPSWPNHKSVFNSAGLEVREYAYYDAENHTLDFDALINSLNEAQAGDVVLFHGCCHNPTGIDPTLEQWQTLAQLSVEKGWLPLFDFAYQGFARGLEEDAEGLRAFAAMHKELIVASSYSKNFGLYNERVGAATLVAADSETVDRAFSQMKAAIRANYSNPPAHGASVVATILSNDALRAIWEQELTDMRQRIQRMRQLFVNTLQEKGANRDFSFIIKQNGMFSFSGLTKEQVLRLREEFGVYAVASGRVNVAGMTPDNMAPLCEAIVAVL [C258A] were 2.5 kcal/mol, 2.14 kcal/mol/M, 3.51 M and 7.5 kcal/mol.

These data come from FireProtDB (doi:10.1021/bi00116a007).
